Experimental findings from publication PMC10723718 (PLOS Genetics, 2023) are described below.

The target in one assay is T1, His6-PhoP (M. tuberculosis, UniProt P71814 1-247).
T1 construct: PhoP, response regulator, M. tuberculosis, full length (247 amino acids); also called His-PhoP; not shown: His6, N-terminal, kept
In words: pull-down. The conditions noted are these: both partners purified.

The target of a further assay is T2, GST-PhoP (M. tuberculosis, UniProt P71814 1-247).
T2 construct: PhoP, response regulator, M. tuberculosis; also called GST-tagged PhoP
In words: pull-down. Conditions: both partners purified.

B1: GST-PhoRC (domain or fragment)
chain: TAAAIGAGQLDRRVPQWHPRTEVGRLSLALNGMLAQIQRAVASAESSAEKARDSEDRMRQFITDASHELRTPLTTIRGFAELYRQGAARDVGMLLSRIESEASRMGLLVDDLLLLARLDAHRPLELCRVDLLALASDAAHDARAMDPKRRITLEVLDGPGTPEVLGDESRLRQVLRNLVANAIQHTPESADVTVRVGTEGDDAILEVADDGPGMSQEDALRVFERFYRADSSRARASGGTGLGLSIVDSLVAAHGGAVTVTTALGEGCCFRVSLPRVSDVDQLSLTPVVPGPP
notes: PhoR, sensor kinase, M. tuberculosis, cytoplasmic domain PhoRC, residues 193-485 (C-terminal 293 residues); also called GST-tagged PhoRC
Take B1: the binding result with His6-PhoP is “binds”.

B2: His6-tagged PrrBC (cytoplasmic region of PrrB comprising C-terminal residues 200 to 446) (domain or fragment)
chain: ASEAIEIAEAMRGMLQRIWNEQNRTKEALASARDFAAVSSHELRTPLTAMRTNLEVLSTLDLPDDQRKEVLNDVIRTQSRIEATLSALERLAQGELSTSDDHVPVDITDLLDRAAHDAARIYPDLDVSLVPSPTCIIVGLPAGLRLAVDNAIANAVKHGGATLVQLSAVSSRAGVEIAIDDNGSGVPEGERQVVFERFSRGSTASHSGSGLGLALVAQQAQLHGGTASLENSPLGGARLVLRLPGPS
notes: PrrB, sensor kinase, M. tuberculosis, cytoplasmic domain residues 200-446 (247 amino acids); also called His6-PrrBC; His-PrrBC; not shown: His6, N-terminal, kept
On to B2, for which, in the assay with GST-PhoP, the binding result is recorded as “binds”.
